According to patent US20240100176A1 (Eli Lilly, published 2024):

T1: human IL-4Rα on cells (human PBMC B cells and CD4+ T cells, Daudi cells, HEK-Blue IL-4/IL-13 cells, myeloid … (human, UniProt P24394 26-825))
T1 sequence: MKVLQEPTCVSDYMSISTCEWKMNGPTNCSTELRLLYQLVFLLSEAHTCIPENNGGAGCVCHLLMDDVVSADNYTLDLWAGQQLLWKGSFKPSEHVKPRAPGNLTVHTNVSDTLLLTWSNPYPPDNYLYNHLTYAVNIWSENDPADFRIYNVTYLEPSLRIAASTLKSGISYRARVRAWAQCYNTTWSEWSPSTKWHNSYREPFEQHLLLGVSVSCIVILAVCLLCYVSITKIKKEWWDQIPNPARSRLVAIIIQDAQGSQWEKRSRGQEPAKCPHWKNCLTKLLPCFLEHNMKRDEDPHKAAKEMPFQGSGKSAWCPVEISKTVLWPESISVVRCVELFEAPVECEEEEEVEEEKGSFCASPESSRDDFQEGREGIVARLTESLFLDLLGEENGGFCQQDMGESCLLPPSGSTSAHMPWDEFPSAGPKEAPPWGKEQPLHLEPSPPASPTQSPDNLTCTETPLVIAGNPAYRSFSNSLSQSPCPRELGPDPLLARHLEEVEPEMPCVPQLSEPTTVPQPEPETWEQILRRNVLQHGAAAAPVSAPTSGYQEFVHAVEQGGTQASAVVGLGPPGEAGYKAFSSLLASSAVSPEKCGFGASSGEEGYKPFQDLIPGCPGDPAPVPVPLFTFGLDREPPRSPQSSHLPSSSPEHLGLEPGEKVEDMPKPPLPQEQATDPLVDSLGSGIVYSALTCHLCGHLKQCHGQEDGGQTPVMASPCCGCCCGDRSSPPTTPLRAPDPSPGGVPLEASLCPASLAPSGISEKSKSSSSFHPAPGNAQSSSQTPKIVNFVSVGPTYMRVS

T2: hexahistidine-tagged human IL-4Rα extracellular domain (human, UniProt P24394 26-232)
T2 construct: In the MSD assay the plate coat is the His-tagged ECD; also called human IL-4Rα ECD; Wild type receptor; not shown: hexahistidine tag
T2 sequence: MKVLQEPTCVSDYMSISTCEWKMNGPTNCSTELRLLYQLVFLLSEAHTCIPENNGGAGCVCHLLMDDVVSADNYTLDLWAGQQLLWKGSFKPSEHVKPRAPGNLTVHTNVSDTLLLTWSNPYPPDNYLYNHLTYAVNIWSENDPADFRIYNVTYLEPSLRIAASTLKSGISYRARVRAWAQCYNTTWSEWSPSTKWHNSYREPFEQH

B1: anti-human IL-4Rα antibody Ab1 (antibody, human IgG4 S228P, kappa)
heavy: QVQLVESGGGLVQPGGSLRLSCVASGFTFSHSSMNWVRQAPGKGLEWVSYISRATGAVYYADSVKGRFTISRDNAKNSLYLQMNSLRDEDTAVYYCAREPVFDYWGQGTLVTVSSASTKGPCVFPLAPCSRSTSESTAALGCLVKDYFPEPVTVSWNSGALTSGVHTFPAVLQSSGLYSLSSVVTVPSSSLGTKTYTCNVDHKPSNTKVDKRVESKYGPPCPPCPAPEFLGGPSVFLFPPKPKDTLMISRTPEVTCVVVDVSQEDPEVKFNWYVDGVEVHNAKTKPREEQFNSTYRVVSVLTVLHQDWLNGKEYKCKVSNKGLPSSIEKTISKAKGQPREPQVYTLPPSREEMTKNQVSLTCLVKGFYPSDICVEWESNGQPENNYKTTPPVLDSDGSFFLYSRLTVDKSRWQQGNVFSCSVMHEALHNHYTQKSLSLSLG
light: DIQMTQSPSAMSASVGDRVTITCRASQDISNYLAWFQQKPGKVPTRLIYAASSLQSGVPSRFSGSGSGTEFTLTISSLQPEDFATYYCLQWSSYPRTFGQGTKVEIKRTVAAPSVFIFPPSDEQLKSGTASVVCLLNNFYPREAKVQWKVDNALQSGNSQESVTEQDSKDSTYSLSSTLTLSKADYEKHKVYACEVTHQGLSSPVTKSFNRGEC
notes: human kappa light chain; also called anti-human IL-4Rα Ab1; unconjugated Ab1
B2: anti-human IL-4Rα Ab1 GC conjugate of Example 1b (n=4) (antibody, human IgG4 S228P, kappa)
heavy: B1 heavy
light: B1 light
modifications: glucocorticoid receptor agonist payload-linker (GC-L, Preparation 8) conjugated to the engineered cysteines at the 124 and 378 position of the heavy chain (EU numbering); n is 4 (average DAR 4.17 by RP-HPLC, 3.85 by TOF MS)

What was measured:
[1] = target: T1, human IL-4Rα on cells (human PBMC B …); test: cell-based or functional assay
[2] = target: T2, hexahistidine-tagged human IL-4Rα …; test: competition MSD ELISA (solution equilibrium, 37 °C), apparent KD, mean of 3 experiments
Method: Example 3a. […] A 96-well multi-array plate (Meso Scale Diagnostics, Cat. #L15XA-3) was coated at 4° C. overnight with 0.5 μg/mL hexahistidine-tagged human or cynomolgus monkey IL-4Rα ECD in phosphate buffered saline (PBS). Following coating, plates were washed 10 times with 200 μL PBST (PBS with 0.05% Tween® 20) and blocked with 300 μL/well of PBS casein blocking buffer (Pierce, Cat. #37528) at 37° C. for 1 hour. Plates were then washed 10 times as above, and 50 μL of the preincubated antibody:IL-4Rα dilution series was transferred to the wells and incubated at 37° C. with 300 rpm shaking for […]. Plates were washed 10 times with PBST, 50 μL of 1 μg/mL anti-human antibody sulfo-tag 20 (Meso Scale Diagnostics, Cat. #R32AJ-1) was added to the plates for the assay of Table 7a, and anti-Human NHP Kappa Light chain SULFO-TAG 20 (Meso Scale Diagnostics, Cat #D20TF-6) was added to the plates for the assay of Table 7b, and plates were incubated at 37° C. with 300 rpm shaking for 30 minutes. Plates were washed 10 times with PBST, 150 μL/well of 1× Read Buffer T was added to the wells and analyzed on a SECTOR® Imager 6000 (Meso Scale Diagnostics) 15 min after buffer addition. The apparent KD is determined by fitting a sigmoidal curve to the electrochemiluminescence (ECL) response vs. log (soluble IL-4Rα concentration) using GraphPad Prism 9. Data is graphed with normalized ECL values.

[3] = target: T1, human IL-4Rα on cells (human PBMC B …); test: flow cytometry on human PBMCs, CD4-positive T cells, Alexa Fluor 647 labelled antibody, percent IL-4Rα positive cells
Method: Example 3b. Binding to B cells and T cells: Binding of the exemplified anti-human IL-4Rα antibodies to B cells and T cells was tested in a Fluorescence Activated Cell Sorting (FACS) assay. […] Freshly isolated cells PBMCs were resuspended at 2×10⁶ cells/mL and allowed to rest for 15 minutes at room temperature, then plated at 100 μL/well into a round bottom 96-well plate (COSTAR®) and washed with FACS buffer (PBS containing 2% fetal bovine serum from Corning®). Exemplified anti-human IL-4Rα antibodies and the respective control IgG antibodies conjugated to Alexa Fluor® 647 according to manufacturer's protocol (Thermo Fisher Scientific) were added to the wells at 66.67 nM and diluted 4-fold in duplicate. Equivalent volume of 2× antibody cocktail containing: Human TruStain FcX™. FITC anti-human CD3 Antibody, Alexa Fluor® 700 anti-human CD4 Antibody (all from Biolegend®) and CD20 Monoclonal Antibody (2H7), PerCP-Cyanine5.5 (Thermo Fisher Scientific) was then added to the wells. Cells were incubated at 4° C. for 30 minutes, washed twice with FACS buffer and resuspended in a final volume of 100 μL FACS buffer. Viability dye, Sytox™ blue (Thermo Fisher Scientific), was added and the samples were analyzed via a flow cytometer (LSRFortessa™ X-20; BD BIOSCIENCES). Data analysis was performed using FlowJo software and statistical analysis was performed using GraphPad Prism 9. […]

[4] = target: T1, human IL-4Rα on cells (human PBMC B …); test: cell-based or functional assay; remark: listed apart in the source
[5] = target: T1, human IL-4Rα on cells (human PBMC B …); test: cell-based or functional assay; remark: listed apart in the source

Binder | Inhibition of IL-13 induced STAT6 phosphorylation in B cells, IC50 [1] [µg/mL] | Kd [2] [nM] | EC50 [3] [nM] | Inhibition of IL-4 induced STAT6 phosphorylation, B cells, IC50 [4] [µg/mL] | Inhibition of IL-4 induced STAT6 phosphorylation, CD4+ T cells, IC50 [4] [µg/mL] | Inhibition of IL-4 induced CD23 Expression on myeloid cells, IC50 [5] [nM]
B1 | 0.03 | 0.0312 | 26.3 | 0.019 | 0.017 | 8.27
B2 | 0.064 | 0.0247 | – | 0.046 | 0.041 | 10.8
